# Test results from patent US20060257938A1, “Method of screening for drugs that block ligand binding to a lipid binding protein” (priority 2005, published 2006).
# Substitutions are numbered along the chain they refer to.
# B1: 14Q 18S 73I 117W 72A (protein, listed as Rattus norvegicus)
# chain: AFDGTWKVDRNENQEKFSEKMGINVVKRKLGAHDNLKLTITQEGNKFTVKESSNFRNIDVVFELGVDFAYSAIDGTELTGTWTMEGNKLVGKFKRVDNGKELIAVREISGNELIQTWTYEGVEAKRIFKKE
# modifications: PEPTIDE (1)...(131) wild-type rat intestinal fatty acid binding protein
# B2: 18I 31Y 73I 72A (protein, listed as Rattus norvegicus)
# chain: B1 chain with Q14Y, S18I, G31Y, W117Y
# modifications: PEPTIDE (1)...(131) wild-type rat intestinal fatty acid binding protein
# B3: 18L 73F 117G 72A (protein, listed as Rattus norvegicus)
# chain: B1 chain with Q14Y, S18L, I73F, W117G
# modifications: PEPTIDE (1)...(131) wild-type rat intestinal fatty acid binding protein
# B4: 14A 18Y 31W 73G 117V 72A (protein, listed as Rattus norvegicus)
# chain: B1 chain with Q14A, S18Y, G31W, I73G, W117V
# modifications: PEPTIDE (1)...(131) wild-type rat intestinal fatty acid binding protein
# B5: 104T 115A 74F 72A (protein, listed as Rattus norvegicus)
# chain: B1 chain with Q14Y, S18M, I73A, D74F, A104T, Q115A, W117Y
# modifications: PEPTIDE (1)...(131) wild-type rat intestinal fatty acid binding protein
# B6: 18G 31F 73L 72A (protein, listed as Rattus norvegicus)
# chain: B1 chain with Q14Y, S18G, G31F, I73L, W117Y
# modifications: PEPTIDE (1)...(131) wild-type rat intestinal fatty acid binding protein
# B7: 18V 31I 55L 73V 72A (protein, listed as Rattus norvegicus)
# chain: B1 chain with Q14Y, S18V, G31I, F55L, I73V, W117Y
# modifications: PEPTIDE (1)...(131) wild-type rat intestinal fatty acid binding protein
# B8: 18V 31Y 73V 72A (protein, listed as Rattus norvegicus)
# chain: B1 chain with Q14Y, S18V, G31Y, I73V, W117Y
# modifications: PEPTIDE (1)...(131) wild-type rat intestinal fatty acid binding protein
# B9: 18I 31F 73V 72A (protein, listed as Rattus norvegicus)
# chain: B1 chain with Q14Y, S18I, G31F, I73V, W117Y
# modifications: PEPTIDE (1)...(131) wild-type rat intestinal fatty acid binding protein
# B10: 18V 31Y 73I 72A (protein, listed as Rattus norvegicus)
# chain: B1 chain with Q14Y, S18V, G31Y, W117Y
# modifications: PEPTIDE (1)...(131) wild-type rat intestinal fatty acid binding protein
# B11: 14L 18L 31Y 73L 117A 72A (protein, listed as Rattus norvegicus)
# chain: B1 chain with Q14L, S18L, G31Y, I73L, W117A
# modifications: PEPTIDE (1)...(131) wild-type rat intestinal fatty acid binding protein
# B12: 38M 104S 115A 74F 72A (protein, listed as Rattus norvegicus)
# chain: B1 chain with Q14Y, S18M, L38M, I73A, D74F, A104S, Q115A, W117Y
# modifications: PEPTIDE (1)...(131) wild-type rat intestinal fatty acid binding protein
# Assay: Probe fluorescence ratio response to arachidonic acid relative to ADIFAB2
# Type: binding
# Conditions: arachidonic acid; response relative to ADIFAB2
# Method in brief: (§1)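 Fluorescently labeled rat intestinal FABP variants were read at two emission wavelengths, near the unbound maximum (about 420 to 480 nm) and the FFA-bound maximum (about 495 to 580 nm). R = Fλ1/Fλ2 after subtracting probe-free intensity; ΔR = R+agent − R0, normalized to ADIFAB2 (rI-FABP-L72A).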
row,Molecule,DR/DR AA
1,B1,0.878
2,B2,2.487
3,B3,2.445
4,B4,0.365
5,B5,2.635
6,B6,1.785
7,B7,2.273
8,B8,2.400
9,B9,2.649
10,B10,1.946
11,B11,2.987
12,B12,1.690

# Assay: Probe fluorescence ratio response to linolenic acid relative to ADIFAB2
# Type: binding
# Conditions: response relative to ADIFAB2
# Method in brief: as §1
row,Molecule,DR/DR LNA
1,B1,0.894
2,B2,2.865
3,B3,1.913
4,B4,0.940
5,B5,2.206
6,B6,1.235
7,B7,2.433
8,B8,2.605
9,B9,2.738
10,B10,2.537
11,B11,2.818
12,B12,1.615

# Assay: Probe fluorescence ratio response to linoleic acid relative to ADIFAB2
# Type: binding
# Conditions: response relative to ADIFAB2
# Method in brief: as §1
row,Molecule,DR/DR LA
1,B1,0.784
2,B2,3.031
3,B3,2.283
4,B4,1.018
5,B5,2.231
6,B6,1.520
7,B7,2.680
8,B8,2.780
9,B9,3.096
10,B10,2.619
11,B11,2.948
12,B12,1.778

# Assay: Probe fluorescence ratio response to oleic acid relative to ADIFAB2
# Type: binding
# Conditions: response relative to ADIFAB2
# Method in brief: as §1
row,Molecule,DR/DR OA
1,B1,0.809
2,B2,2.322
3,B3,1.908
4,B4,0.518
5,B5,1.621
6,B6,1.365
7,B7,2.254
8,B8,2.349
9,B9,2.257
10,B10,2.007
11,B11,1.908
12,B12,1.155

# Assay: Probe fluorescence ratio response to palmitic acid relative to ADIFAB2
# Type: binding
# Conditions: response relative to ADIFAB2
# Method in brief: as §1
row,Molecule,DR/DR PA
1,B1,0.559
2,B2,1.825
3,B3,1.039
4,B4,0.421
5,B5,0.720
6,B6,1.025
7,B7,1.253
8,B8,1.534
9,B9,1.893
10,B10,1.784
11,B11,1.444
12,B12,0.498

# Assay: Probe fluorescence ratio response to palmitoleic acid relative to ADIFAB2
# Type: binding
# Conditions: response relative to ADIFAB2
# Method in brief: as §1
row,Molecule,DR/DR POA
1,B1,0.834
2,B2,2.620
3,B3,1.731
4,B4,0.883
5,B5,1.661
6,B6,1.235
7,B7,2.285
8,B8,2.376
9,B9,2.665
10,B10,2.528
11,B11,2.317
12,B12,1.172

# Assay: Probe fluorescence ratio response to stearic acid relative to ADIFAB2
# Type: binding
# Conditions: response relative to ADIFAB2
# Method in brief: as §1
row,Molecule,DR/DR SA
1,B1,−0.044
2,B2,1.310
3,B3,0.663
4,B4,0.158
5,B5,0.877
6,B6,1.690
7,B7,1.233
8,B8,1.330
9,B9,1.294
10,B10,1.139
11,B11,0.762
12,B12,0.356
